Data taken from IntAct's records for PubMed 29039417.

B1: BBSome complex member BBS5 (Homo sapiens), Q8N3I7 (parent)
chain: MSVLDALWEDRDVRFDLSAQQMKTRPGEVLIDCLDSIEDTKGNNGDRGRLLVTNLRILWHSLALSRVNVSVGYNCILNITTRTANSKLRGQTEALYILTKCNSTRFEFIFTNLVPGSPRLFTSVMAVHRAYETSKMYRDFKLRSALIQNKQLRLLPQEHVYDKINGVWNLSSDQGNLGTFFITNVRIVWHANMNDSFNVSIPYLQIRSIKIRDSKFGLALVIESSQQSGGYVLGFKIDPVEKLQESVKEINSLHKVYSASPIFGVDYEMEEKPQPLEALTVEQIQDDVEIDSDGHTDAFVAYFADGNKQQDREPVFSEELGLAIEKLKDGFTLQGLWEVMS
partner: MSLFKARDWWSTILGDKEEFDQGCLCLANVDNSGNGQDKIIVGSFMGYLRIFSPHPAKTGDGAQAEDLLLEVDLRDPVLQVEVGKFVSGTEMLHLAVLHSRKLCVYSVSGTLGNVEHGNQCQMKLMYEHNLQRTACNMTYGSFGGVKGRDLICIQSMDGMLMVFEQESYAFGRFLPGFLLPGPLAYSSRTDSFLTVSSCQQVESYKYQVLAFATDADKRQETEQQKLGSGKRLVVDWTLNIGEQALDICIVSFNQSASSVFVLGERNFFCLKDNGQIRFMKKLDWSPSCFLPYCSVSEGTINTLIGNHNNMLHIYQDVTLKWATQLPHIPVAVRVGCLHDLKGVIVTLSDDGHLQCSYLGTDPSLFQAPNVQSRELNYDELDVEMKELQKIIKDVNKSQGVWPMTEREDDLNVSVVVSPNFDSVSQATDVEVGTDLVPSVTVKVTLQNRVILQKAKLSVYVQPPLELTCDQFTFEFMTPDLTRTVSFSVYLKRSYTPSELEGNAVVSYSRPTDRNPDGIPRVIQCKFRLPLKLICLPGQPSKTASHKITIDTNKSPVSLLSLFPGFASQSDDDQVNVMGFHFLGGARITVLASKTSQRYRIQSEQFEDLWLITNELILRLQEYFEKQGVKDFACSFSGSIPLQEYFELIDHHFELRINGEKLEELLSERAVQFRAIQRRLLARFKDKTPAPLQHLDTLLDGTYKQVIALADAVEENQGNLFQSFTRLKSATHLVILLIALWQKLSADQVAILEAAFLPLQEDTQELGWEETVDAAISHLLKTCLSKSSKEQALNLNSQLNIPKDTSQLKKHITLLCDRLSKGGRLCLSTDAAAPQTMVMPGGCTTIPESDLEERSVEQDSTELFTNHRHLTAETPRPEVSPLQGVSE

Variants of: B1
Settings: with pthb1_human BBS9, Q3SYG4

Variant | effect of a mutation on the interaction
MSVLDALWEDRDVRFDLSAQQMKTRPGEVLIDCLDSIEDTKGNNGDRGRLLVTNLRILWHSLALSRVNVSVGYNCILNITTRTANSKLRGQTEALYILTKCNSTRFEEIFTNLVPGSPRLFTSVMAVHRAYETSKMYRDFKLRSALIQNKQLRLLPQEHVYDKINGVWNLSSDQGNLGTFFITNVRIVWHANMNDSFNVSIPYLQIRSIKIRDSKFGLALVIESSQQSGGYVLGFKIDPVEKLQESVKEINSLHKVYSASPIFGVDYEMEEKPQPLEALTVEQIQDDVEIDSDGHTDAFVAYFADGNKQQDREPVFSEELGLAIEKLKDGFTLQGLWEVMS [F108E] | disrupting interaction strength
MSVLDALWEDRDVRFDLSAQQMKTRPGEVLIDCLDSIEDTKGNNGDRGRLLVTNLRILWHSLALSRVNVSVGYNCILNITTRTANSKLRGQTEALYILTKCNSTRFEAIFTNLVPGSPRLFTSVMAVHRAYETSKMYRDFKLRSALIQNKQLRLLPQEHVYDKINGVWNLSSDQGNLGTFFITNVRIVWHANMNDSFNVSIPYLQIRSIKIRDSKFGLALVIESSQQSGGYVLGFKIDPVEKLQESVKEINSLHKVYSASPIFGVDYEMEEKPQPLEALTVEQIQDDVEIDSDGHTDAFVAYFADGNKQQDREPVFSEELGLAIEKLKDGFTLQGLWEVMS [F108A] | with no effect
MSVLDALWEDRDVRFDLSAQQMKTRPGEVLIDCLDSIEDTKGNNGDRGRLLVTNLRILWHSLALSRVNVSVGYNCILNITTRTANSKLRGQTEALYILTKCNSTRAEFIFTNLVPGSPRLFTSVMAVHRAYETSKMYRDFKLRSALIQNKQLRLLPQEHVYDKINGVWNLSSDQGNLGTFFITNVRIVWHANMNDSFNVSIPYLQIRSIKIRDSKFGLALVIESSQQSGGYVLGFKIDPVEKLQESVKEINSLHKVYSASPIFGVDYEMEEKPQPLEALTVEQIQDDVEIDSDGHTDAFVAYFADGNKQQDREPVFSEELGLAIEKLKDGFTLQGLWEVMS [F106A] | with no effect
MSVLDALWEDRDVRFDLSAQQMKTRPGEVLIDCLDSIEDTKGNNGDRGRLLVTNLRILWHSLALSRVNVSVGYNCILNITTRTANSKLRGQTEALYILTKCNSTREEFIFTNLVPGSPRLFTSVMAVHRAYETSKMYRDFKLRSALIQNKQLRLLPQEHVYDKINGVWNLSSDQGNLGTFFITNVRIVWHANMNDSFNVSIPYLQIRSIKIRDSKFGLALVIESSQQSGGYVLGFKIDPVEKLQESVKEINSLHKVYSASPIFGVDYEMEEKPQPLEALTVEQIQDDVEIDSDGHTDAFVAYFADGNKQQDREPVFSEELGLAIEKLKDGFTLQGLWEVMS [F106E] | with no effect
MSVLDALWEDRDVRFDLSAQQMKTRPGEVLIDCLDSIEDTKGNNGDRGRLLVTNLRILWHSLALSRVNVSVGYNCILNITTRTANSKLRGQTEALYILTKCNSTRKEFIFTNLVPGSPRLFTSVMAVHRAYETSKMYRDFKLRSALIQNKQLRLLPQEHVYDKINGVWNLSSDQGNLGTFFITNVRIVWHANMNDSFNVSIPYLQIRSIKIRDSKFGLALVIESSQQSGGYVLGFKIDPVEKLQESVKEINSLHKVYSASPIFGVDYEMEEKPQPLEALTVEQIQDDVEIDSDGHTDAFVAYFADGNKQQDREPVFSEELGLAIEKLKDGFTLQGLWEVMS [F106K] | with no effect
MSVLDALWEDRDVRFDLSAQQMKTRPGEVLIDCLDSIEDTKGNNGDRGRLLVTNLRILWHSLALSRVNVSVGYNCILNITTRTANSKLRGQTEALYILTKCNSTEFEFIFTNLVPGSPRLFTSVMAVHRAYETSKMYRDFKLRSALIQNKQLRLLPQEHVYDKINGVWNLSSDQGNLGTFFITNVRIVWHANMNDSFNVSIPYLQIRSIKIRDSKFGLALVIESSQQSGGYVLGFKIDPVEKLQESVKEINSLHKVYSASPIFGVDYEMEEKPQPLEALTVEQIQDDVEIDSDGHTDAFVAYFADGNKQQDREPVFSEELGLAIEKLKDGFTLQGLWEVMS [R105E] | with no effect
MSVLDALWEDRDVRFDLSAQQMKTRPGEVLIDCLDSIEDTKGNNGDRGRLLVTNLRILWHSLALSRVNVSVGYNCILNITTRTANSKLRGQTEALYILTKCNSTKFEFIFTNLVPGSPRLFTSVMAVHRAYETSKMYRDFKLRSALIQNKQLRLLPQEHVYDKINGVWNLSSDQGNLGTFFITNVRIVWHANMNDSFNVSIPYLQIRSIKIRDSKFGLALVIESSQQSGGYVLGFKIDPVEKLQESVKEINSLHKVYSASPIFGVDYEMEEKPQPLEALTVEQIQDDVEIDSDGHTDAFVAYFADGNKQQDREPVFSEELGLAIEKLKDGFTLQGLWEVMS [R105K] | with no effect
MSVLDALWEDRDVRFDLSAQQMKTRPGEVLIDCLDSIEDTKGNNGDRGRLLVTNLRILWHSLALSRVNVSVGYNCILNITTRTANSKLRGQTEALYILTKCNSTAFEFIFTNLVPGSPRLFTSVMAVHRAYETSKMYRDFKLRSALIQNKQLRLLPQEHVYDKINGVWNLSSDQGNLGTFFITNVRIVWHANMNDSFNVSIPYLQIRSIKIRDSKFGLALVIESSQQSGGYVLGFKIDPVEKLQESVKEINSLHKVYSASPIFGVDYEMEEKPQPLEALTVEQIQDDVEIDSDGHTDAFVAYFADGNKQQDREPVFSEELGLAIEKLKDGFTLQGLWEVMS [R105A] | with no effect
MSVLDALWEDRDVRFDLSAQQMKTRPGEVLIDCLDSIEDTKGNNGDRGRLLVTNLRILWHSLALSRVNVSVGYNCILNITTRTANSKLRGQTEALYILTKCNSKRFEFIFTNLVPGSPRLFTSVMAVHRAYETSKMYRDFKLRSALIQNKQLRLLPQEHVYDKINGVWNLSSDQGNLGTFFITNVRIVWHANMNDSFNVSIPYLQIRSIKIRDSKFGLALVIESSQQSGGYVLGFKIDPVEKLQESVKEINSLHKVYSASPIFGVDYEMEEKPQPLEALTVEQIQDDVEIDSDGHTDAFVAYFADGNKQQDREPVFSEELGLAIEKLKDGFTLQGLWEVMS [T104K] | with no effect
MSVLDALWEDRDVRFDLSAQQMKTRPGEVLIDCLDSIEDTKGNNGDRGRLLVTNLRILWHSLALSRVNVSVGYNCILNITTRTANSKLRGQTEALYILTKCNSTRFKFIFTNLVPGSPRLFTSVMAVHRAYETSKMYRDFKLRSALIQNKQLRLLPQEHVYDKINGVWNLSSDQGNLGTFFITNVRIVWHANMNDSFNVSIPYLQIRSIKIRDSKFGLALVIESSQQSGGYVLGFKIDPVEKLQESVKEINSLHKVYSASPIFGVDYEMEEKPQPLEALTVEQIQDDVEIDSDGHTDAFVAYFADGNKQQDREPVFSEELGLAIEKLKDGFTLQGLWEVMS [E107K] | with no effect
MSVLDALWEDRDVRFDLSAQQMKTRPGEVLIDCLDSIEDTKGNNGDRGRLLVTNLRILWHSLALSRVNVSVGYNCILNITTRTANSKLRGQTEALYILTKCNSTRFAFIFTNLVPGSPRLFTSVMAVHRAYETSKMYRDFKLRSALIQNKQLRLLPQEHVYDKINGVWNLSSDQGNLGTFFITNVRIVWHANMNDSFNVSIPYLQIRSIKIRDSKFGLALVIESSQQSGGYVLGFKIDPVEKLQESVKEINSLHKVYSASPIFGVDYEMEEKPQPLEALTVEQIQDDVEIDSDGHTDAFVAYFADGNKQQDREPVFSEELGLAIEKLKDGFTLQGLWEVMS [E107A] | with no effect

Next, values leading:

effect of a mutation on the interaction | Variant
with no effect | MSVLDALWEDRDVRFDLSAQQMKTRPGEVLIDCLDSIEDTKGNNGDRGRLLVTNLRILWHSLALSRVNVSVGYNCILNITTRTANSKLRGQTEALYILTKCNSTRFEKIFTNLVPGSPRLFTSVMAVHRAYETSKMYRDFKLRSALIQNKQLRLLPQEHVYDKINGVWNLSSDQGNLGTFFITNVRIVWHANMNDSFNVSIPYLQIRSIKIRDSKFGLALVIESSQQSGGYVLGFKIDPVEKLQESVKEINSLHKVYSASPIFGVDYEMEEKPQPLEALTVEQIQDDVEIDSDGHTDAFVAYFADGNKQQDREPVFSEELGLAIEKLKDGFTLQGLWEVMS [F108K]
with no effect | MSVLDALWEDRDVRFDLSAQQMKTRPGEVLIDCLDSIEDTKGNNGDRGRLLVTNLRILWHSLALSRVNVSVGYNCILNITTRTANSKLRGQTEALYILTKCNSTRFEFKFTNLVPGSPRLFTSVMAVHRAYETSKMYRDFKLRSALIQNKQLRLLPQEHVYDKINGVWNLSSDQGNLGTFFITNVRIVWHANMNDSFNVSIPYLQIRSIKIRDSKFGLALVIESSQQSGGYVLGFKIDPVEKLQESVKEINSLHKVYSASPIFGVDYEMEEKPQPLEALTVEQIQDDVEIDSDGHTDAFVAYFADGNKQQDREPVFSEELGLAIEKLKDGFTLQGLWEVMS [I109K]
with no effect | MSVLDALWEDRDVRFDLSAQQMKTRPGEVLIDCLDSIEDTKGNNGDRGRLLVTNLRILWHSLALSRVNVSVGYNCILNITTRTANSKLRGQTEALYILTKCNSTRFEFEFTNLVPGSPRLFTSVMAVHRAYETSKMYRDFKLRSALIQNKQLRLLPQEHVYDKINGVWNLSSDQGNLGTFFITNVRIVWHANMNDSFNVSIPYLQIRSIKIRDSKFGLALVIESSQQSGGYVLGFKIDPVEKLQESVKEINSLHKVYSASPIFGVDYEMEEKPQPLEALTVEQIQDDVEIDSDGHTDAFVAYFADGNKQQDREPVFSEELGLAIEKLKDGFTLQGLWEVMS [I109E]
with no effect | MSVLDALWEDRDVRFDLSAQQMKTRPGEVLIDCLDSIEDTKGNNGDRGRLLVTNLRILWHSLALSRVNVSVGYNCILNITTRTANSKLRGQTEALYILTKCNSTRFEFAFTNLVPGSPRLFTSVMAVHRAYETSKMYRDFKLRSALIQNKQLRLLPQEHVYDKINGVWNLSSDQGNLGTFFITNVRIVWHANMNDSFNVSIPYLQIRSIKIRDSKFGLALVIESSQQSGGYVLGFKIDPVEKLQESVKEINSLHKVYSASPIFGVDYEMEEKPQPLEALTVEQIQDDVEIDSDGHTDAFVAYFADGNKQQDREPVFSEELGLAIEKLKDGFTLQGLWEVMS [I109A]
with no effect | MSVLDALWEDRDVRFDLSAQQMKTRPGEVLIDCLDSIEDTKGNNGDRGRLLVTNLRILWHSLALSRVNVSVGYNCILNITTRTANSKLRGQTEALYILTKCNSTRFEFIATNLVPGSPRLFTSVMAVHRAYETSKMYRDFKLRSALIQNKQLRLLPQEHVYDKINGVWNLSSDQGNLGTFFITNVRIVWHANMNDSFNVSIPYLQIRSIKIRDSKFGLALVIESSQQSGGYVLGFKIDPVEKLQESVKEINSLHKVYSASPIFGVDYEMEEKPQPLEALTVEQIQDDVEIDSDGHTDAFVAYFADGNKQQDREPVFSEELGLAIEKLKDGFTLQGLWEVMS [F110A]
with no effect | MSVLDALWEDRDVRFDLSAQQMKTRPGEVLIDCLDSIEDTKGNNGDRGRLLVTNLRILWHSLALSRVNVSVGYNCILNITTRTANSKLRGQTEALYILTKCNSTRFEFIETNLVPGSPRLFTSVMAVHRAYETSKMYRDFKLRSALIQNKQLRLLPQEHVYDKINGVWNLSSDQGNLGTFFITNVRIVWHANMNDSFNVSIPYLQIRSIKIRDSKFGLALVIESSQQSGGYVLGFKIDPVEKLQESVKEINSLHKVYSASPIFGVDYEMEEKPQPLEALTVEQIQDDVEIDSDGHTDAFVAYFADGNKQQDREPVFSEELGLAIEKLKDGFTLQGLWEVMS [F110E]
